Measurements taken from US20070244048A1 (published 2007).
*: point of attachment. (PEG)2 40 kDa = branched PEG of 40 kDa linked via the Cys side-chain thiol (code C2 = Cys(PEG)2 40 kDa); Succinimide(1-Et,3-yl) = CCN1C(=O)CC(*)C1=O

Experiments:
Assay in all cases: cell-based or functional assay
human NMUR1 = biological target: T1, human NMUR1 (human, UniProt Q9HB89 1-426)
T1 sequence (looked up): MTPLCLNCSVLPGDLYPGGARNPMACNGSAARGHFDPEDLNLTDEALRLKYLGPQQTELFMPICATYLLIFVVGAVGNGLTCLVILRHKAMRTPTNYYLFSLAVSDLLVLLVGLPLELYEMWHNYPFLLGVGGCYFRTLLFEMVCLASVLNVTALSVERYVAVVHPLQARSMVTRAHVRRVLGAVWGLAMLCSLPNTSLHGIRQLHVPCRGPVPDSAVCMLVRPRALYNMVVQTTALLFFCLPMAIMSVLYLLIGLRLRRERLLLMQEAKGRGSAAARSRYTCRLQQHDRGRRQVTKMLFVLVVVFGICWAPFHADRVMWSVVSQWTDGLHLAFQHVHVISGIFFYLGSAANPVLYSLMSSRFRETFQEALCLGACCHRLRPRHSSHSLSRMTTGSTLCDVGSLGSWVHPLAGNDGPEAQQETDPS

human NMUR2 = human NMUR2 (human, UniProt Q9GZQ4 1-415)
mouse NMUR1-ATG = biological target: T2, mouse NMUR1-ATG (mouse, UniProt O55040 1-428)
T2 sequence (looked up): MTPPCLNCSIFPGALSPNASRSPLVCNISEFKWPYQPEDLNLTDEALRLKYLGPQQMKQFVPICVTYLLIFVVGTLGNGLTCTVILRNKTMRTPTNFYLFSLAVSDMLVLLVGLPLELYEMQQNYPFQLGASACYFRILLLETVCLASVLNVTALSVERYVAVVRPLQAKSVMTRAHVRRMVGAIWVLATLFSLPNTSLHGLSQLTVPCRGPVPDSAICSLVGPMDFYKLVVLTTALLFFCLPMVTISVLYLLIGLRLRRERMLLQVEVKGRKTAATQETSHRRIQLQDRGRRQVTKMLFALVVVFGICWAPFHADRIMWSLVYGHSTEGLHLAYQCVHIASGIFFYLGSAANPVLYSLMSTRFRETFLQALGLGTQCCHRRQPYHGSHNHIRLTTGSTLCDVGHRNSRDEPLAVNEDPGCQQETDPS

mouse NMUR1-CTG = biological target: T3, mouse NMUR1-CTG (mouse, UniProt O55040 1-428)
T3 sequence (looked up): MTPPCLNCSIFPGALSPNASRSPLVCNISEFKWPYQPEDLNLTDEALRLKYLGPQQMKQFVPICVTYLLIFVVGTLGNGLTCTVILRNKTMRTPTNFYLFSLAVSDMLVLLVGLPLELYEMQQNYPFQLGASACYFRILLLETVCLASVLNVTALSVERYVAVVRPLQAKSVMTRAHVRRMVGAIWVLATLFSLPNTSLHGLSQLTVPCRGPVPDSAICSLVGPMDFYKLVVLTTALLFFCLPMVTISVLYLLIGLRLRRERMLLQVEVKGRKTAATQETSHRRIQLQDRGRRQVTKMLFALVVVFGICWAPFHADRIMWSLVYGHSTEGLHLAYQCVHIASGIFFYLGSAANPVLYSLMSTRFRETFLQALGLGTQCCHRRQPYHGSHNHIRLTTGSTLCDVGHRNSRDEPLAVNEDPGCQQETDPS

mouse NMUR2 = mouse NMUR2 (mouse, UniProt Q8BZ39 1-395)
rat NMUR1-ATG = biological target: T4, rat NMUR1-ATG (rat, UniProt Q9JJI5 1-425)
T4 sequence (looked up): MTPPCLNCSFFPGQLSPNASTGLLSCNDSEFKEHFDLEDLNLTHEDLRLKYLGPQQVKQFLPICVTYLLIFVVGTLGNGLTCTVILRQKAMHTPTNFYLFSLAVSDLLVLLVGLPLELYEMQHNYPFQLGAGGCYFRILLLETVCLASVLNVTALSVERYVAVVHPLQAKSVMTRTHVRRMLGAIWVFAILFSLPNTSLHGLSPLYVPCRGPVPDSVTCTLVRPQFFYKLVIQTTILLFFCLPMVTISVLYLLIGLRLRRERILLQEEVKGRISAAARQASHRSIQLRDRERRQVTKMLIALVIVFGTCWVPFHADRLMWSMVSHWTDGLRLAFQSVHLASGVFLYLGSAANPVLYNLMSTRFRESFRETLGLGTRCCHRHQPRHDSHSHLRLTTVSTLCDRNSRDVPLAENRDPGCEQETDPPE

rat NMUR1-TTG = biological target: T5, rat NMUR1-TTG (rat, UniProt Q9JJI5 1-425)
T5 sequence (looked up): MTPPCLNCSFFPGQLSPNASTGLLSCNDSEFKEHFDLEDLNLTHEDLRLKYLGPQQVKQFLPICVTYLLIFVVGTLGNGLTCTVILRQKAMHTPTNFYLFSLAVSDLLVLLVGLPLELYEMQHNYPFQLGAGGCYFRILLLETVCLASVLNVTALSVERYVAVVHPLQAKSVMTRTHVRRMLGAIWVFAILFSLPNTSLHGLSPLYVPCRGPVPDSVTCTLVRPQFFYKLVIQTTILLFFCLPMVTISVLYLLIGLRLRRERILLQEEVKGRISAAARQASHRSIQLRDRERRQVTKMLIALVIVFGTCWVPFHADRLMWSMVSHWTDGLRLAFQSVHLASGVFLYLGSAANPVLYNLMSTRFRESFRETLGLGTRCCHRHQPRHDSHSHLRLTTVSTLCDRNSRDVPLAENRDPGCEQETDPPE

rat NMUR2 = rat NMUR2 (rat, UniProt Q9ESQ4 1-395)
Sequence of rat NMUR2 (Q9ESQ4 whole entry): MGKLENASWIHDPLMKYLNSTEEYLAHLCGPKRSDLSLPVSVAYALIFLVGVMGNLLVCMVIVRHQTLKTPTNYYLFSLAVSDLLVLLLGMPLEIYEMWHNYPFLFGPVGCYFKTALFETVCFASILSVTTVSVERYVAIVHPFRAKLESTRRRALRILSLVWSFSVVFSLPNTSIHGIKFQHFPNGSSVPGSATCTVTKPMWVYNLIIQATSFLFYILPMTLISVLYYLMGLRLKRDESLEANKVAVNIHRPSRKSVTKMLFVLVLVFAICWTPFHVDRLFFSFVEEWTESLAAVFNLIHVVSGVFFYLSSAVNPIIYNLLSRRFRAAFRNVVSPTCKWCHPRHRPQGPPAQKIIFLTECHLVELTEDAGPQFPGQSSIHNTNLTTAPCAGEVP

Sequence of human NMUR2 (Q9GZQ4 whole entry): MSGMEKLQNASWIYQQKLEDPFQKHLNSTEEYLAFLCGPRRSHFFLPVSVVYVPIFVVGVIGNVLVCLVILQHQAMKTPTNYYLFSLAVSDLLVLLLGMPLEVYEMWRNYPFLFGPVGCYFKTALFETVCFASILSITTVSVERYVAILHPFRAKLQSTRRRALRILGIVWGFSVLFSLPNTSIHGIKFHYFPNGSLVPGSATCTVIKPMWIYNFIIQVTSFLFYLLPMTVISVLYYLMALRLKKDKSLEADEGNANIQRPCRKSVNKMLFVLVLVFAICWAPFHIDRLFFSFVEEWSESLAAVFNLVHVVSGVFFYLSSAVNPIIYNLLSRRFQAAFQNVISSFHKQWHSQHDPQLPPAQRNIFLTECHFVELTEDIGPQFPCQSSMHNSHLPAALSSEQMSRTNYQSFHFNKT
Sequence of mouse NMUR2 (Q8BZ39 whole entry): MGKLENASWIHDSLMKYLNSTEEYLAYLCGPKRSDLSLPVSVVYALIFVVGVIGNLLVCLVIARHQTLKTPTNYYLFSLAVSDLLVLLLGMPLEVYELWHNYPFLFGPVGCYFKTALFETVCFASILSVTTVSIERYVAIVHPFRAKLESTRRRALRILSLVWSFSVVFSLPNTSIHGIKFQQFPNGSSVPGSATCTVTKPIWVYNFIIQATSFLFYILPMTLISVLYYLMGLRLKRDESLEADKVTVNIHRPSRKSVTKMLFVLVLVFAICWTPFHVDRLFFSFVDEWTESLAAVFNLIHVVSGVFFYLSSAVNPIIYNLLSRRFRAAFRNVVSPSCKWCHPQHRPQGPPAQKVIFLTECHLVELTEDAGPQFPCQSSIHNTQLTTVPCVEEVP

Ac-C(Succinimide(1-Et,3-yl))C(Succinimide(1-Et,3-yl))FRVDEEFQSPFASQSRGYFLFRPRN-NH2 [NMU22]
% Activity (FLIPR) (human NMUR1): 95.6% | EC50 (FLIPR) (human NMUR1): 10.2 nM | % Activity (FLIPR) (human NMUR2): 105% | EC50 (FLIPR) (human NMUR2): 6.5 nM | % Activity (FLIPR) (mouse NMUR1-ATG): 100% | EC50 (FLIPR) (mouse NMUR1-ATG): 6.2 nM | % Activity (FLIPR) (mouse NMUR1-CTG): 100% | EC50 (FLIPR) (mouse NMUR1-CTG): 43.5 nM | % Activity (FLIPR) (mouse NMUR2): 100% | EC50 (FLIPR) (mouse NMUR2): 6.9 nM | % Activity (FLIPR) (rat NMUR1-ATG): 100% | EC50 (FLIPR) (rat NMUR1-ATG): 14 nM | % Activity (FLIPR) (rat NMUR1-TTG): 96.4% | EC50 (FLIPR) (rat NMUR1-TTG): 39.1 nM | % Activity (FLIPR) (rat NMUR2): 98.8% | EC50 (FLIPR) (rat NMUR2): 17.1 nM

Ac-C((PEG)2 40 kDa)FQSPFASQSRGYFLFRPRN-NH2 [NMU20]
% Activity (FLIPR) (human NMUR1): 100% | EC50 (FLIPR) (human NMUR1): 16.4 nM | % Activity (FLIPR) (human NMUR2): 100% | EC50 (FLIPR) (human NMUR2): 13 nM | % Activity (FLIPR) (mouse NMUR1-ATG): 100% | EC50 (FLIPR) (mouse NMUR1-ATG): 12.7 nM | % Activity (FLIPR) (mouse NMUR1-CTG): 65.4% | EC50 (FLIPR) (mouse NMUR1-CTG): 480 nM | % Activity (FLIPR) (mouse NMUR2): 100% | EC50 (FLIPR) (mouse NMUR2): 14.8 nM | % Activity (FLIPR) (rat NMUR1-ATG): 100% | EC50 (FLIPR) (rat NMUR1-ATG): 7.2 nM | % Activity (FLIPR) (rat NMUR1-TTG): 93.8% | EC50 (FLIPR) (rat NMUR1-TTG): 24.4 nM | % Activity (FLIPR) (rat NMUR2): 100% | EC50 (FLIPR) (rat NMUR2): 16.9 nM

Ac-C(PEG 20 kDa)C(PEG 20 kDa)FRVDEEFQSPFASQSRGYFLFRPRN-NH2 [NMU23]
% Activity (FLIPR) (human NMUR1): 66.9% | EC50 (FLIPR) (human NMUR1): 300 nM | % Activity (FLIPR) (human NMUR2): 71.7% | EC50 (FLIPR) (human NMUR2): 1000 nM | % Activity (FLIPR) (mouse NMUR1-ATG): 100% | EC50 (FLIPR) (mouse NMUR1-ATG): 14 nM | % Activity (FLIPR) (mouse NMUR1-CTG): 50.9% | EC50 (FLIPR) (mouse NMUR1-CTG): 770 nM | % Activity (FLIPR) (mouse NMUR2): 100% | EC50 (FLIPR) (mouse NMUR2): 21.3 nM | % Activity (FLIPR) (rat NMUR1-ATG): 76.4% | EC50 (FLIPR) (rat NMUR1-ATG): 127 nM | % Activity (FLIPR) (rat NMUR1-TTG): 39.8% | EC50 (FLIPR) (rat NMUR1-TTG): 1000 nM | % Activity (FLIPR) (rat NMUR2): 90.2% | EC50 (FLIPR) (rat NMUR2): 47.4 nM

Ac-C(PEG 20 kDa)FRVDEEFQSPFASQSRGYFLFRPRN-NH2 [NMU21]
% Activity (FLIPR) (human NMUR1): 93.2% | EC50 (FLIPR) (human NMUR1): 14.5 nM | % Activity (FLIPR) (human NMUR2): 97.9% | EC50 (FLIPR) (human NMUR2): 24.2 nM | % Activity (FLIPR) (mouse NMUR1-ATG): 100% | EC50 (FLIPR) (mouse NMUR1-ATG): 9.1 nM | % Activity (FLIPR) (mouse NMUR1-CTG): 90.8% | EC50 (FLIPR) (mouse NMUR1-CTG): 56.3 nM | % Activity (FLIPR) (mouse NMUR2): 100% | EC50 (FLIPR) (mouse NMUR2): 1.6 nM | % Activity (FLIPR) (rat NMUR1-ATG): 99.9% | EC50 (FLIPR) (rat NMUR1-ATG): 19.5 nM | % Activity (FLIPR) (rat NMUR1-TTG): 77.5% | EC50 (FLIPR) (rat NMUR1-TTG): 220 nM | % Activity (FLIPR) (rat NMUR2): 99.2% | EC50 (FLIPR) (rat NMUR2): 7 nM

B1: NMU19 (peptide)
peptide: Ac-C(Succinimide(1-Et,3-yl))FQSPFASQSRGYFLFRPRN-NH2
SMILES: CCN1C(=O)CC(SC[C@H](NC(C)=O)C(=O)N[C@@H](Cc2ccccc2)C(=O)N[C@@H](CCC(N)=O)C(=O)N[C@@H](CO)C(=O)N2CCC[C@H]2C(=O)N[C@@H](Cc2ccccc2)C(=O)N[C@@H](C)C(=O)N[C@@H](CO)C(=O)N[C@@H](CCC(N)=O)C(=O)N[C@@H](CO)C(=O)N[C@@H](CCCNC(=N)N)C(=O)NCC(=O)N[C@@H](Cc2ccc(O)cc2)C(=O)N[C@@H](Cc2ccccc2)C(=O)N[C@@H](CC(C)C)C(=O)N[C@@H](Cc2ccccc2)C(=O)N[C@@H](CCCNC(=N)N)C(=O)N2CCC[C@H]2C(=O)N[C@@H](CCCNC(=N)N)C(=O)N[C@@H](CC(N)=O)C(N)=O)C1=O
% Activity (FLIPR) (human NMUR1): 95.9% | EC50 (FLIPR) (human NMUR1): 38.9 nM | % Activity (FLIPR) (human NMUR2): 105% | EC50 (FLIPR) (human NMUR2): 11.5 nM | % Activity (FLIPR) (mouse NMUR1-ATG): 100% | EC50 (FLIPR) (mouse NMUR1-ATG): 7.9 nM | % Activity (FLIPR) (mouse NMUR1-CTG): 111% | EC50 (FLIPR) (mouse NMUR1-CTG): 22.5 nM | % Activity (FLIPR) (mouse NMUR2): 100% | EC50 (FLIPR) (mouse NMUR2): 5.6 nM | % Activity (FLIPR) (rat NMUR1-ATG): 100% | EC50 (FLIPR) (rat NMUR1-ATG): 6.8 nM | % Activity (FLIPR) (rat NMUR1-TTG): 100% | EC50 (FLIPR) (rat NMUR1-TTG): 12.8 nM | % Activity (FLIPR) (rat NMUR2): 100% | EC50 (FLIPR) (rat NMUR2): 8.7 nM
